Positions count from the first letter of the chain named. Several values for one entry are separate records, joined by “and”; a condition that tells them apart may be missing. Equal values may be shown once. Read-outs that look alike come from different tables or passages of the source. One block for each binder: values may come before it.
What was measured:
[1] = target: T1, Human OSM (human, UniProt P13725 26-221); assay: cell-based or functional assay
T1 sequence: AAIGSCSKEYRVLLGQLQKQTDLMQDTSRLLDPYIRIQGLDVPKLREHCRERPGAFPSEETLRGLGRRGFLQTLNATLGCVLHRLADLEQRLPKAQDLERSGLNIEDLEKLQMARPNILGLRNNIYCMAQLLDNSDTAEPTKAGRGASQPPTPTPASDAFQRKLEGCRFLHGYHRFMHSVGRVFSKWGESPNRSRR

[2] = target: T2, Cynomolgus OSM (cynomolgus, UniProt A0A2K5VPC6 26-221); assay: cell-based or functional assay
T2 sequence: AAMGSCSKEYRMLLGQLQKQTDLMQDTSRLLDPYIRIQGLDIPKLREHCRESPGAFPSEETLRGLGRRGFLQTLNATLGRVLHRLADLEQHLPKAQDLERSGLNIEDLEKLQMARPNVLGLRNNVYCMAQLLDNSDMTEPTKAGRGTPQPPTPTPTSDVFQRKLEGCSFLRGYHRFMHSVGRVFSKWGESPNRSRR

[3] = target: T1, Human OSM; assay: cell-based or functional assay; remark: listed apart in the source
[4] = target: T2, Cynomolgus OSM; assay: cell-based or functional assay; remark: listed apart in the source
[5] = target: T1, Human OSM; assay: cell-based or functional assay; remark: listed apart in the source
[6] = target: T2, Cynomolgus OSM; assay: cell-based or functional assay; remark: listed apart in the source
[7] = target: Marmoset OSM (marmoset); assay: cell-based or functional assay
[8] = target: T1, Human OSM; assay: BIAcore kinetics, purified antibody
[9] = target: T2, Cynomolgus OSM; assay: BIAcore kinetics, purified antibody
[10] = target: T1, Human OSM; assay: BIAcore kinetics, purified antibody; remark: listed apart in the source
[11] = target: T2, Cynomolgus OSM; assay: BIAcore kinetics, purified antibody; remark: listed apart in the source
[12] = target: T1, Human OSM; assay: BIAcore kinetics, purified antibody; remark: listed apart in the source
[13] = target: T2, Cynomolgus OSM; assay: BIAcore kinetics, purified antibody; remark: listed apart in the source
[14] = target: T1, Human OSM; assay: BIAcore kinetics, transfection supernatant
[15] = target: T1, Human OSM; assay: BIAcore kinetics, transfection supernatant; remark: listed apart in the source
[16] = target: T2, Cynomolgus OSM; assay: BIAcore kinetics, transfection supernatant
[17] = target: T3, Endogenous human OSM (neutrophil-derived) (human, UniProt P13725 26-221, limits assumed); assay: gp130 ELISA with endogenous neutrophil-derived human OSM
T3 construct: Native OSM generated from GM-CSF stimulation of healthy human neutrophils; also called native OSM; endogenous OSM
T3 sequence: T1 sequence

[18] = target: T1, Human OSM; assay: BIAcore kinetics
[19] = target: T2, Cynomolgus OSM; assay: BIAcore kinetics
[20] = target: T1, Human OSM; assay: BIAcore kinetics; remark: listed apart in the source
[21] = target: T2, Cynomolgus OSM; assay: BIAcore kinetics; remark: listed apart in the source
[22] = target: T1, Human OSM; assay: cell-based or functional assay; remark: listed apart in the source
[23] = target: T2, Cynomolgus OSM; assay: cell-based or functional assay; remark: listed apart in the source
[24] = target: T1, Human OSM; assay: cell-based or functional assay; remark: listed apart in the source
[25] = target: T2, Cynomolgus OSM; assay: cell-based or functional assay; remark: listed apart in the source
[26] = target: T1, Human OSM; assay: cell-based or functional assay; remark: listed apart in the source
[27] = target: T1, Human OSM; assay: human gp130 ELISA, inhibition of OSM binding to gp130
[28] = target: T2, Cynomolgus OSM; assay: as above
[29] = target: T1, Human OSM; assay: as above; remark: listed apart in the source
[30] = target: T2, Cynomolgus OSM; assay: as above; remark: listed apart in the source
[31] = target: T3, Endogenous human OSM …; assay: gp130 ELISA with endogenous neutrophil-derived human OSM; remark: listed apart in the source
[32] = target: T1, Human OSM; assay: BIAcore kinetics, purified antibody; remark: listed apart in the source
[33] = target: T1, Human OSM; assay: direct ELISA, human OSM coated at 1 µg/ml, detection with anti-human IgG
Procedure: Both the 10G8 and 9G2 chimaeras successfully bound to human OSM, to a greater extent than 15E10chimera (15E10c) (FIG. 11). This was a direct ELISA where human OSM was coated at 1 μg/ml and bound antibodies detected using anti-human IgG.

KB cell neutralisation assay, mean IC50 [1]: 0.015 µg/ml and 102 pM | KB cell neutralisation assay, mean IC50 [2]: 0.007 µg/ml and 21 pM | KB cell neutralisation assay, mean IC50 [3]: 0.009 µg/ml and 60 pM | KB cell neutralisation assay, mean IC50 [4]: 0.007 µg/ml and 47 pM | KB cell neutralisation assay, mean IC50 [5]: 0.0028 µg/ml and 19 pM | KB cell neutralisation assay, mean IC50 [6]: 0.0014 µg/ml and 9 pM | KB cell neutralisation assay, mean IC50 [7]: 0.0017 µg/ml and 11 pM | Kd [8]: 0.355 nM | koff [8]: 0.000137 s⁻¹ | kon [8]: 387000 M⁻¹ s⁻¹ | Kd [9]: 0.251 nM | koff [9]: 0.000107 s⁻¹ | kon [9]: 426000 M⁻¹ s⁻¹ | Kd [10]: 0.445 nM | koff [10]: 0.000151 s⁻¹ | kon [10]: 340000 M⁻¹ s⁻¹ | Kd [11]: 0.341 nM | koff [11]: 0.000115 s⁻¹ | kon [11]: 338000 M⁻¹ s⁻¹ | Kd [12]: 0.125 nM | koff [12]: 8.9e-05 s⁻¹ | kon [12]: 712000 M⁻¹ s⁻¹ | Kd [13]: 0.195 nM | koff [13]: 8.31e-05 s⁻¹ | kon [13]: 427000 M⁻¹ s⁻¹ | Kd [14]: 0.25 nM | koff [14]: 9.95e-05 s⁻¹ | kon [14]: 398000 M⁻¹ s⁻¹ | Kd [15]: 0.461 nM | koff [15]: 0.000153 s⁻¹ | kon [15]: 332000 M⁻¹ s⁻¹ | Kd [16]: 0.301 nM | koff [16]: 0.000104 s⁻¹ | kon [16]: 345000 M⁻¹ s⁻¹ | IC50 [17]: 0.0058 µg/mL and 0.039 nM
B1: Humanised 10G8 H0L1 (antibody, human IgG1, kappa, V domains shown)
VH: EVQLVESGGGLVQPGGSLRLSCAASGFTFSNYAMSWVRQAPGKGLEWVATISDGGSFTYYLDNVRGRFTISRDNAKNSLYLQMNSLRAEDTAVYYCARDVGHTTFWYFDVWGRGTLVTVSS
VL: DIVMTQSPDSLAVSLGERATINCRASKSVSAAGYNFMHWYQQKPGQPPKVLIYYASNLESGVPDRFSGSGSGTDFTLTISSLQAEDVAVYYCLHSREFPFTFGGGTKVEIKR
notes: IgG1 kappa; mature H0 heavy chain and mature L1 light chain; also called Humanised 10G8 H0L1 parent

Kd [18]: 1.6 nM | Kd [19]: 0.75 nM | Kd [20]: 1.6 nM | koff [20]: 0.000121 s⁻¹ | kon [20]: 75200 M⁻¹ s⁻¹ | Kd [21]: 0.775 nM | koff [21]: 4.76e-05 s⁻¹ | kon [21]: 61400 M⁻¹ s⁻¹ | KB cell neutralisation assay, mean IC50 [22]: 0.018 µg/ml and 120 pM | KB cell neutralisation assay, mean IC50 [23]: 100 pM and 0.015 µg/ml | KB cell neutralisation assay, mean IC50 [24]: 0.163 µg/ml and 1.1 nM | KB cell neutralisation assay, mean IC50 [25]: 0.046 µg/ml and 307 pM | IC50 (read off the curve); IL-6 release from KB cells stimulated with human OSM, 25% human AB serum [26]: ~0.03 µg/mL | IC50 [27]: 0.16 µg/mL and 1.1 nM | IC50 [28]: 0.03 µg/mL and 0.2 nM | IC50 [29]: 0.038 µg/mL and 0.253 nM | IC50 [30]: 0.049 µg/mL and 0.327 nM | IC50 [31]: 0.02 µg/mL and 0.133 nM
B2: 9G2, murine anti-OSM mAb (antibody, V domains shown)
VH: EVQLVESGGGLVEPGGSLKLSCAASGFTFSNYAMSWVRQTPEKRLEWVATISDGGSFTYYLDNVKGRFTISRDNAKNNLYLQMSHLKSDDTAMYYCARDVGHTTFWYFDVWGTGTTVTVSS
VL: DIVLTQSPVFLVISLGQRATISCRASKSVSASGYNFMHWYQQKPGQPPKVLIKYASNLESGVPARFSGSGSGTDFTLNIHPVEEEDAVTYYCQHSREFPFTFGGGTKLEIK
notes: Mouse hybridoma mAb; also called 9G2/C1; 9G2.C1

Kd [20]: 0.654 nM | koff [20]: 0.000152 s⁻¹ | kon [20]: 233000 M⁻¹ s⁻¹ | Kd [21]: 0.48 nM | koff [21]: 0.000114 s⁻¹ | kon [21]: 237000 M⁻¹ s⁻¹ | KB cell neutralisation assay, mean IC50 [24]: 0.021 µg/ml and 140 pM | KB cell neutralisation assay, mean IC50 [25]: 0.008 µg/ml and 53 pM | KB cell neutralisation assay, mean IC50 [1]: 0.022 µg/ml and 144 pM | KB cell neutralisation assay, mean IC50 [2]: 0.008 µg/ml and 100 pM | KB cell neutralisation assay, mean IC50 [5]: 0.0052 µg/ml and 35 pM | KB cell neutralisation assay, mean IC50 [6]: 0.0011 µg/ml and 7 pM | KB cell neutralisation assay, mean IC50 [7]: 0.0271 µg/ml and 181 pM | Kd [32]: 0.407 nM | koff [32]: 0.000105 s⁻¹ | kon [32]: 257000 M⁻¹ s⁻¹ | Kd [8]: 0.518 nM | koff [8]: 0.000125 s⁻¹ | kon [8]: 241000 M⁻¹ s⁻¹ | Kd [9]: 0.394 nM | koff [9]: 9.95e-05 s⁻¹ | kon [9]: 253000 M⁻¹ s⁻¹ | Kd [12]: 0.184 nM | koff [12]: 7.87e-05 s⁻¹ | kon [12]: 427000 M⁻¹ s⁻¹ | Kd [13]: 0.266 nM | koff [13]: 6.63e-05 s⁻¹ | kon [13]: 250000 M⁻¹ s⁻¹ | Kd [14]: 0.407 nM | koff [14]: 0.000103 s⁻¹ | kon [14]: 252000 M⁻¹ s⁻¹ | IC50 [29]: 0.037 µg/mL and 0.247 nM | IC50 [30]: 0.016 µg/mL and 0.107 nM | IC50 [31]: 0.009 µg/mL and 0.06 nM | IC50 [17]: 0.0091 µg/mL and 0.061 nM | EC50 (read off the curve) [33]: ~0.2 nM
B3: 10G8 chimaera (antibody, human IgG1, kappa, V domains shown)
VH: B2 VH with V2M, G9E, R44S, K65R, T113S, T116L
VL: DIVLTQSPVFLVVSLGQRATISCRASKSVSAAGYNFMHWYQQKPGQPPKVLIKYASNLESGVPARFSGSGSGTDFTLNIHPVEEEDAVTYYCLHSREFPFTFGGGTNLEIKR
notes: Mouse V regions on human gamma 1 wild type and human kappa constant regions; the entries called VH/VL domain (chimera) are full chains; also called 10G8 chimera; 10G8 Chimæra

Kd [20]: 1.33 nM | koff [20]: 0.000168 s⁻¹ | kon [20]: 126000 M⁻¹ s⁻¹ | Kd [21]: 0.787 nM | koff [21]: 9.99e-05 s⁻¹ | kon [21]: 127000 M⁻¹ s⁻¹ | KB cell neutralisation assay, mean IC50 [24]: 0.231 µg/ml and 1.5 nM | KB cell neutralisation assay, mean IC50 [25]: 0.031 µg/ml and 207 pM | IC50 [29]: 0.078 µg/mL and 0.52 nM | IC50 [30]: 0.028 µg/mL and 0.187 nM | IC50 [31]: 0.017 µg/mL and 0.113 nM | EC50 (read off the curve) [33]: ~0.4 nM
B4: 9G2 chimaera (antibody, human IgG1, kappa, V domains shown)
VH: B2 VH with T116L
VL: B3 VL with V13I, A32S, L93Q, N107K
notes: Mouse V regions on human gamma 1 wild type and human kappa constant regions; also called 9G2 chimera
